In publication PMC5667739 (PLoS Pathogens, 2017):

Assays:
Settings in all cases: both partners purified
[1] = biological target: T1, GII.10 P domain (Vietnam026) (norovirus GII.10 (Vietnam026)); test: ELISA
T1 construct: source: E. coli, purified

[2] = biological target: T1, GII.10 P domain (Vietnam026); test: ITC
[3] = biological target: T1, GII.10 P domain (Vietnam026); test: ITC; remark: listed apart in the source

Binder	lowest Nanobody concentration that detected the antigen (direct ELISA) [1] [ng/mL]	stoichiometry N [2]	Kd [3] [nM]	dH [3] [cal/mol]
Nano-42 (VHH) VHH: QVQLQESGGGLVQPGGSLRLSCAASGSVSRTYVMGWYRQTPGNQRELVATITSVGSTNYADSLKGRFTISRENAENTVYLQMNSLKPEDTAIYYCKYIRYSPIHAPLDYWGQGTQVTVSS	20	1 Nanobody per P domain monomer	0.809	-9840
Nano-32 (VHH) VHH: QVQLQESGGGLVQPGGSLRLSCAASGFTLGYYPIGWFRQAPGKGLEGVSCISGSGGSANYAASVKGRFTISRDNAKNTVYLQMNSLKPEDTAIYYCAADLSSLTTVQAMCVIPRPGFSAKAYDYWGLGTQVTVSS		1 Nanobody per P domain monomer	60	5000
Nano-14 (VHH, also called N14; source: E. coli WK6 (pHEN6C vector), purified) VHH: QVQLQESGGGLVQSGGSLRLSCAASRNINSMHVVGWYRQAPGNQRELVASITDDGSTDYVDSVKGRFTISRDIAENTVYLQMNSLNPEDTAVYYCKGTIVVFTTPMHYWGKGTQVTVSS	20	0.5 Nanobody per P domain monomer	10.4	-22000
Nano-26 (VHH, also called N26; source: E. coli WK6 (pHEN6C vector), purified) VHH: QVQLQESGGGLVQPGGSLRLSCTAPRIIFFMYDVGWYRQAPEKQRELVAQINSDVSTKYADSVKGRFTISRDNAKRTVYLQMNDLKPEDAAVYYCNVRRASADYWGQGTQVTVSS	20	1 Nanobody per P domain monomer	3.2	-10000
Nano-27 (VHH) VHH: QVQLQESGGGLVQPGGSLRLSCAASGTIFSRNIMGWYRQAPGKERELVASIYSDRSTWYAESVEGRFTISRDNVKNTLYLQMNSLKPEDTAMYYCRDRTLGSWGQGTQVTVSS		1 Nanobody per P domain monomer	9.5	-8100
Nano-4 (VHH) VHH: QVQLQESGGGLVQPGGSLRLFCAASGFTFSSYAMRWYRQAPGKERELVAAITSAGGSTHYADSVKERFTISRDNAKNTMYLQMNSLKPEDTAVYYCNARRDYGDSWFTAGGGYWGQGTQVTVSS	20	1 Nanobody per P domain monomer	35	-12000
